Measured values: the supplement of paper PMC9112550, “Optimization of the antimicrobial peptide Bac7 by deep mutational scanning” (BMC Biology, 2022)

Each sequence was assayed on Escherichia coli TOP10 (assay: shrunken log2 fold change of peptide-encoding DNA abundance (4.5 h post-induction vs induction); higher = less antimicrobial activity (less host growth inhibition)). Conditions: time post-induction: 4.5 h; library: site-saturation at positions 5, 18, 19, 20.
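Also: peptides expressed intracellularly from a pBAD plasmid library in pooled LB shake-flask culture, induced with 0.3% L-arabinose, DNA abundance read by NGS, three biological replicates, DESeq2 with apeglm shrinkage.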

Row | Sequence | shrunken log2 fold change
1 | RRIRQRPPRLPRPRPRPWNRPRP | 0.013
2 | RRIRLRPPRLPRPRPRPIVNPRP | -0.803
3 | RRIRDRPPRLPRPRPRPGIGPRP | 0.76
4 | RRIRHRPPRLPRPRPRPNEPPRP | -0.00438
5 | RRIRKRPPRLPRPRPRPLLRPRP | 0.477
6 | RRIRRRPPRLPRPRPRPWFQPRP | -0.0671
7 | RRIRIRPPRLPRPRPRPGNLPRP | -0.175
8 | RRIRRRPPRLPRPRPRPISFPRP | -0.27
9 | RRIRVRPPRLPRPRPRPYSFPRP | -0.594
10 | RRIRGRPPRLPRPRPRPLATPRP | 2.95
11 | RRIRKRPPRLPRPRPRPCATPRP | 0.242
12 | RRIRQRPPRLPRPRPRPHTLPRP | -0.263
13 | RRIRPRPPRLPRPRPRPKHCPRP | -0.0919
14 | RRIRARPPRLPRPRPRPADAPRP | 0.473
15 | RRIRCRPPRLPRPRPRPFDGPRP | -0.0927
16 | RRIRMRPPRLPRPRPRPAGFPRP | 0.733
17 | RRIRHRPPRLPRPRPRPNSYPRP | 0.118
18 | RRIRIRPPRLPRPRPRPGREPRP | 0.311
19 | RRIRARPPRLPRPRPRPAFHPRP | -0.115
20 | RRIRKRPPRLPRPRPRPVAMPRP | 1.67
21 | RRIRHRPPRLPRPRPRPTRIPRP | -0.0296
22 | RRIRKRPPRLPRPRPRPWLTPRP | 0.0883
23 | RRIRNRPPRLPRPRPRPGGKPRP | -0.101
24 | RRIRRRPPRLPRPRPRPTCSPRP | 0.0172
25 | RRIRSRPPRLPRPRPRPGKPPRP | 0.0657

Row | Sequence | shrunken log2 fold change
26 | RRIRMRPPRLPRPRPRPMSWPRP | 0.132
27 | RRIRGRPPRLPRPRPRPMILPRP | -0.0452
28 | RRIRWRPPRLPRPRPRPIKAPRP | 0.00489
29 | RRIRPRPPRLPRPRPRPRIAPRP | 0.451
30 | RRIRERPPRLPRPRPRPLQYPRP | -0.286
31 | RRIRHRPPRLPRPRPRPQKWPRP | -0.875
32 | RRIRDRPPRLPRPRPRPVQLPRP | 0.0283
33 | RRIRPRPPRLPRPRPRPRGPPRP | 0.545
34 | RRIRMRPPRLPRPRPRPFVCPRP | 0.137
35 | RRIRERPPRLPRPRPRPLVFPRP | -0.153
36 | RRIRIRPPRLPRPRPRPESYPRP | 0.0064
37 | RRIRLRPPRLPRPRPRPKCFPRP | -0.00607
38 | RRIRERPPRLPRPRPRPVQMPRP | -0.115
39 | RRIRGRPPRLPRPRPRPQNAPRP | 0.00487
40 | RRIRDRPPRLPRPRPRPYETPRP | -0.198
41 | RRIRHRPPRLPRPRPRPMNNPRP | -0.759
42 | RRIRTRPPRLPRPRPRPSQRPRP | 0.0168
43 | RRIRQRPPRLPRPRPRPDQHPRP | 0.00878
44 | RRIRERPPRLPRPRPRPWRAPRP | 0.0397
45 | RRIRLRPPRLPRPRPRPGQPPRP | 0.187
46 | RRIRDRPPRLPRPRPRPITNPRP | -0.33
47 | RRIRNRPPRLPRPRPRPLTEPRP | 0.284
48 | RRIRSRPPRLPRPRPRPHHDPRP | -0.759
49 | RRIRDRPPRLPRPRPRPPTFPRP | -0.158
50 | RRIRVRPPRLPRPRPRPCCDPRP | -0.182

Row | Sequence | shrunken log2 fold change
51 | RRIRHRPPRLPRPRPRPIEKPRP | -0.00776
52 | RRIRWRPPRLPRPRPRPIGYPRP | -0.0135
53 | RRIRMRPPRLPRPRPRPQRKPRP | 0.605
54 | RRIRMRPPRLPRPRPRPIAFPRP | -0.0147
55 | RRIRERPPRLPRPRPRPHHYPRP | 0.125
56 | RRIRVRPPRLPRPRPRPVACPRP | 0.167
57 | RRIRHRPPRLPRPRPRPKQSPRP | -0.248
58 | RRIRQRPPRLPRPRPRPEVKPRP | -0.0062
59 | RRIRFRPPRLPRPRPRPGSCPRP | -0.0149
60 | RRIRERPPRLPRPRPRPFLFPRP | -0.286
61 | RRIRYRPPRLPRPRPRPDFTPRP | -0.0212
62 | RRIRSRPPRLPRPRPRPEAHPRP | 0.16
63 | RRIRYRPPRLPRPRPRPWGTPRP | -0.0285
64 | RRIRIRPPRLPRPRPRPSGSPRP | -0.17
65 | RRIRMRPPRLPRPRPRPMQDPRP | 1.14
66 | RRIRKRPPRLPRPRPRPWNQPRP | -0.0169
67 | RRIRYRPPRLPRPRPRPMHWPRP | -0.597
68 | RRIRGRPPRLPRPRPRPRKRPRP | 1.21
69 | RRIRPRPPRLPRPRPRPWKTPRP | -0.225
70 | RRIRARPPRLPRPRPRPRIKPRP | -0.00918
71 | RRIRSRPPRLPRPRPRPNCQPRP | -0.0974
72 | RRIRPRPPRLPRPRPRPRHGPRP | 0.0491
73 | RRIRFRPPRLPRPRPRPNDYPRP | -0.355
74 | RRIRKRPPRLPRPRPRPQVCPRP | 0.138
75 | RRIRRRPPRLPRPRPRPHNYPRP | 0.103

Row | Sequence | shrunken log2 fold change
76 | RRIRSRPPRLPRPRPRPKPCPRP | 0.122
77 | RRIRLRPPRLPRPRPRPLQYPRP | -0.316
78 | RRIRQRPPRLPRPRPRPTMFPRP | -0.208
79 | RRIRCRPPRLPRPRPRPKPLPRP | 0.12
80 | RRIRNRPPRLPRPRPRPLKWPRP | 0.0542
81 | RRIRCRPPRLPRPRPRPLYPPRP | -0.729
82 | RRIRNRPPRLPRPRPRPCDIPRP | -0.0262
83 | RRIRLRPPRLPRPRPRPAQVPRP | 0.324
84 | RRIRRRPPRLPRPRPRPLVPPRP | 0.175
85 | RRIRTRPPRLPRPRPRPHSCPRP | -0.0159
86 | RRIRNRPPRLPRPRPRPLVCPRP | -0.201
87 | RRIRTRPPRLPRPRPRPKQHPRP | 0.119
88 | RRIRARPPRLPRPRPRPDTIPRP | 0.103
89 | RRIRTRPPRLPRPRPRPSICPRP | -0.899
90 | RRIRFRPPRLPRPRPRPMSDPRP | -0.103
91 | RRIRIRPPRLPRPRPRPIRSPRP | -0.273
92 | RRIRFRPPRLPRPRPRPRWSPRP | 0.112
93 | RRIRKRPPRLPRPRPRPMQTPRP | 0.753
94 | RRIRGRPPRLPRPRPRPCIQPRP | -0.0256
95 | RRIRVRPPRLPRPRPRPCVSPRP | -0.0282
96 | RRIRKRPPRLPRPRPRPMIPPRP | 0.0969
97 | RRIRMRPPRLPRPRPRPTYRPRP | 0.422
98 | RRIRPRPPRLPRPRPRPIGWPRP | 0.376
99 | RRIRCRPPRLPRPRPRPNVGPRP | 0.0143
100 | RRIRIRPPRLPRPRPRPKSHPRP | -0.451

Row | Sequence | shrunken log2 fold change
101 | RRIRPRPPRLPRPRPRPDMSPRP | -0.303
102 | RRIRARPPRLPRPRPRPANVPRP | -0.0645
103 | RRIRKRPPRLPRPRPRPDASPRP | 0.187
104 | RRIRDRPPRLPRPRPRPGDVPRP | 0.0601
105 | RRIRGRPPRLPRPRPRPMSQPRP | 0.213
106 | RRIRMRPPRLPRPRPRPYWRPRP | -0.159
107 | RRIRIRPPRLPRPRPRPWTAPRP | -0.307
108 | RRIRERPPRLPRPRPRPYQDPRP | -0.0275
109 | RRIRMRPPRLPRPRPRPYMNPRP | -0.737
110 | RRIRVRPPRLPRPRPRPVDGPRP | 0.021
111 | RRIRKRPPRLPRPRPRPRQSPRP | 0.0892
112 | RRIRFRPPRLPRPRPRPMRFPRP | -0.0257
113 | RRIRYRPPRLPRPRPRPIAKPRP | 0.0673
114 | RRIRFRPPRLPRPRPRPTHVPRP | 0.119
115 | RRIRSRPPRLPRPRPRPNHFPRP | -0.21
116 | RRIRARPPRLPRPRPRPNWLPRP | 0.275
117 | RRIRQRPPRLPRPRPRPRWRPRP | 0.557
118 | RRIRFRPPRLPRPRPRPAPKPRP | 0.379
119 | RRIRMRPPRLPRPRPRPSSTPRP | 0.858
120 | RRIRVRPPRLPRPRPRPKGYPRP | -0.0404
121 | RRIRFRPPRLPRPRPRPHWWPRP | 0.154
122 | RRIRGRPPRLPRPRPRPFDRPRP | 0.0386
123 | RRIRNRPPRLPRPRPRPIQPPRP | -0.213
124 | RRIRVRPPRLPRPRPRPSFDPRP | -0.269
125 | RRIRCRPPRLPRPRPRPDWAPRP | 0.0311

Row | Sequence | shrunken log2 fold change
126 | RRIRMRPPRLPRPRPRPFELPRP | 0.0846
127 | RRIRVRPPRLPRPRPRPIKTPRP | 0.059
128 | RRIRQRPPRLPRPRPRPGLQPRP | -0.0156
129 | RRIRLRPPRLPRPRPRPHPYPRP | -0.379
130 | RRIRQRPPRLPRPRPRPCCCPRP | 0.0589
131 | RRIRYRPPRLPRPRPRPWDQPRP | 0.0123
132 | RRIRERPPRLPRPRPRPSFPPRP | -0.704
133 | RRIRTRPPRLPRPRPRPCHGPRP | -0.0399
134 | RRIRCRPPRLPRPRPRPNFRPRP | 0.0821
135 | RRIRFRPPRLPRPRPRPKQSPRP | 0.328
136 | RRIRPRPPRLPRPRPRPKGIPRP | -0.0606
137 | RRIRCRPPRLPRPRPRPLVYPRP | -0.548
138 | RRIRLRPPRLPRPRPRPRRSPRP | -0.169
139 | RRIRERPPRLPRPRPRPGKPPRP | 0.231
140 | RRIRFRPPRLPRPRPRPQNKPRP | -0.592
141 | RRIRHRPPRLPRPRPRPRVQPRP | 0.054
142 | RRIRVRPPRLPRPRPRPEYYPRP | 0.0358
143 | RRIRERPPRLPRPRPRPTHAPRP | 0.332
144 | RRIRMRPPRLPRPRPRPSFIPRP | -0.668
145 | RRIRGRPPRLPRPRPRPCCPPRP | 0.0328
146 | RRIRMRPPRLPRPRPRPFTGPRP | 0.0078
147 | RRIRNRPPRLPRPRPRPENPPRP | 0.0192
148 | RRIRNRPPRLPRPRPRPDRHPRP | 0.0343
149 | RRIRMRPPRLPRPRPRPATRPRP | 1.58
150 | RRIRLRPPRLPRPRPRPPTGPRP | 0.146
